These results are taken from PMC3643581.

The data set addresses rPTB4 (pQE-PTB4) (UniProt P26599 1-557). In words: UV cross-linking.

Chain of rPTB4 (pQE-PTB4) (P26599 whole entry): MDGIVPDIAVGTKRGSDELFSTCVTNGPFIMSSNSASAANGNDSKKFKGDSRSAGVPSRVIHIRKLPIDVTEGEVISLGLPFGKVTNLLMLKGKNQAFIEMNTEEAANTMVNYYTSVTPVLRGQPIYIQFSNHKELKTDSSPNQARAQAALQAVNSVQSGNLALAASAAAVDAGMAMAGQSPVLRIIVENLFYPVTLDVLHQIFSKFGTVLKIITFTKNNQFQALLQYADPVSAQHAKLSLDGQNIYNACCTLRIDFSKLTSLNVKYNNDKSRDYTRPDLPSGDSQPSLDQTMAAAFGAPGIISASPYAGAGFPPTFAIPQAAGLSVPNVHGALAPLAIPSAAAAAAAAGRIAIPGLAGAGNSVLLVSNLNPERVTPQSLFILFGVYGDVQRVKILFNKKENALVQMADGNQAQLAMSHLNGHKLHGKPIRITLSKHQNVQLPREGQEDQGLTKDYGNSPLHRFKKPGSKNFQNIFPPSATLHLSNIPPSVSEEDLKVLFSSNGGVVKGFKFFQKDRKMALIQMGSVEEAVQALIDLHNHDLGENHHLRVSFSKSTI

For the molecule GGGAGACAAGCUCCUCCUGCGCUCUUUGCUUGCCCUGCUGUGUCGAAUU (ssRNA) [MBNL SELEX RNA D12], the binding result is reported as “no binding”.
